Target: T1, human oncostatin M receptor beta (OSMRβ) (human, UniProt Q99650 28-979)
T1 sequence (looked up): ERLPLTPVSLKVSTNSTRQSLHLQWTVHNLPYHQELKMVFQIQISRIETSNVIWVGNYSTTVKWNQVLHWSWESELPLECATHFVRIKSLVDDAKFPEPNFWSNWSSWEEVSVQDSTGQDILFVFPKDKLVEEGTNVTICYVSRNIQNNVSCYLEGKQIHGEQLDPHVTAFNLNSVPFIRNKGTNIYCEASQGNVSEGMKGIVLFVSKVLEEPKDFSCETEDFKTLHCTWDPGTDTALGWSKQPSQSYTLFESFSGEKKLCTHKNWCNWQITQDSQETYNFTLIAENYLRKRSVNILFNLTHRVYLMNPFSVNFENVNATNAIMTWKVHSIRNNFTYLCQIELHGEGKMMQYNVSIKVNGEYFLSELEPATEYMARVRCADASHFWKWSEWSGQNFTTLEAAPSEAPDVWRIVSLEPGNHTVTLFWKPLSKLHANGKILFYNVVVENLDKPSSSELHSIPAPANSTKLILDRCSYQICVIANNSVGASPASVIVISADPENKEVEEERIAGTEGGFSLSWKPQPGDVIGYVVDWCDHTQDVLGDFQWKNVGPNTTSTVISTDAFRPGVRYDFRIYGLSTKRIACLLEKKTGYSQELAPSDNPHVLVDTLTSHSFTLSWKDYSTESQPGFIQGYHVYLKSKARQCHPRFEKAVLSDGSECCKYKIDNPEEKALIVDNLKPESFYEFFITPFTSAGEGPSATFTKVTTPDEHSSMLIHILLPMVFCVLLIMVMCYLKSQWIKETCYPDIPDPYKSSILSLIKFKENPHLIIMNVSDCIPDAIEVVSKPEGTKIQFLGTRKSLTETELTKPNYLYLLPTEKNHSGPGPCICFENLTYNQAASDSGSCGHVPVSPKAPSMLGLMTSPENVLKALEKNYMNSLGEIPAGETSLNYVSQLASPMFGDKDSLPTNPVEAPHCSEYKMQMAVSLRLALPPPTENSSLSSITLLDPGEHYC
Experiment: cell-based or functional assay

B1: vixarelimab (antibody, human IgG4 S228P, lambda, N297Q, V domains shown)
VH: QVQLVQSGAEVKKPGASVKVSCKASGYTFTSYEINWVRQATGQGLEWMGWMNPNSGYTGYAQKFQGRVTMTRDTSISTAYMEMSSLRSEDTAVYYCARDIVAANTDYYFYYGMDVWGQGTTVTVSS
VL: QSVLTQPPSASGTPGQRVTISCSGSNSNIGSNTVNWYHQLPGTAPKLLIYNINKRPSGVPDRFSGSKSGSSASLAISGLQSEDEADYYCSTWDDSLDGVVFGGGTKLTVLG
Mean of IC50, inhibition of OSM-induced STAT3 phosphorylation (pSTAT3 Tyr705, MSD); IPF-derived lung fibroblasts, [OSM] 1 ng/mL: 12.4 ng/mL | Mean of IC50, inhibition of OSM-induced STAT3 phosphorylation (pSTAT3 Tyr705, MSD); IPF-derived lung fibroblasts, [OSM] 10 ng/mL: 56.1 ng/mL | Mean of IC50, inhibition of OSM-induced STAT3 phosphorylation (pSTAT3 Tyr705, MSD); normal keratinocytes, [OSM] 10 ng/mL: 4.95 ng/mL | Mean of IC50, inhibition of OSM-induced STAT3 phosphorylation (pSTAT3 Tyr705, MSD); normal keratinocytes, [OSM] 100 ng/mL: 45 ng/mL | Mean of IC50, inhibition of OSM-induced STAT3 phosphorylation (pSTAT3 Tyr705, MSD); normal lung fibroblasts, [OSM] 1 ng/mL: 13 ng/mL | Mean of IC50, inhibition of OSM-induced STAT3 phosphorylation (pSTAT3 Tyr705, MSD); normal lung fibroblasts, [OSM] 10 ng/mL: 88.2 ng/mL

— patent US20260000759A1 (Genentech, published 2026)
